Assay results published in publication PMC6775164.
Values joined by “and” are separate entries in the source; they are usually repeats but may differ in a detail not shown here. Identical values can stand only once.

Columns and labels:
[1] = biological target: P74-26 decoration protein (gene product 87) (bacteriophage P74-26); assay: cryo-EM structure; single-particle reconstruction of the capsid of purified P74-26 virions with icosahedral symmetry imposed; virions in 50 mM Tris pH 8.0, 10 mM NaCl, 10 mM MgCl2; 2.8 Å (0.143 FSC)
[2] = biological target: P74-26 major capsid protein (gene product 86) (bacteriophage P74-26); assay: as above

| stoichiometry N [1] | stoichiometry N [2] | Substance |
| --- | --- | --- |
| 3 |  | P74-26 decoration protein (gene product 87) (natural protein) |
|  | 5 and 6 | P74-26 major capsid protein (gene product 86) (natural protein) |
